Measurements as given in patent US20060191037, “Plant transcription factor that is involved in sugar signalling” (published 2006).

What was measured:
Conditions in all cases: tags: N-terminal His-tag (pET-15b, E. coli BL21(DE3))
[1] = biological target: T1, SUSIBA2 (WRKY transcription factor; purified fraction with 70 and 68 kDa forms) (Hordeum vulgare, UniProt Q6VWJ6 Q6VWJ6:1-573); assay: EMSA; two complexes, attributed to 70 and 68 kDa forms
[2] = biological target: T1, SUSIBA2 (WRKY transcription factor; …); assay: EMSA; binding negligible
Excerpt: (§1) The 822-bp long SphI/HaeII fragment, encompassing SP8a and flanking sequences, as well as the 437-bp long BspHI/HaeII fragment, containing SP8a and downstream flanking sequence, formed prominent DNA-protein complexes with the purified SUSIBA2 fraction. Much to our surprise, however, the 510-bp long SphI/BsaI fragment, containing SP8a and upstream flanking sequence, bound only very poorly to SUSIBA2. We concluded that, in fact, the target for SUSIBA2 in the iso1 promoter is not SP8a but one or more sites downstream of the SP8a element. […] To follow up on this observation, we carried out EMSAs with oligonucleotides consisting of the iso1 SURE sequence.
(§2) EMSAs were carried out essentially as described by Sun et al. (1999). The competitor probes were prepared by annealing different non-labeled oligonucleotides in 14 mM Tris-HCl (pH 8.0), 7 mM MgCl₂.

[3] = biological target: T1, SUSIBA2 (WRKY transcription factor; …); assay: EMSA; strong binding
Excerpt: as §1, §2

T1 sequence (Q6VWJ6 whole entry, one chain of several): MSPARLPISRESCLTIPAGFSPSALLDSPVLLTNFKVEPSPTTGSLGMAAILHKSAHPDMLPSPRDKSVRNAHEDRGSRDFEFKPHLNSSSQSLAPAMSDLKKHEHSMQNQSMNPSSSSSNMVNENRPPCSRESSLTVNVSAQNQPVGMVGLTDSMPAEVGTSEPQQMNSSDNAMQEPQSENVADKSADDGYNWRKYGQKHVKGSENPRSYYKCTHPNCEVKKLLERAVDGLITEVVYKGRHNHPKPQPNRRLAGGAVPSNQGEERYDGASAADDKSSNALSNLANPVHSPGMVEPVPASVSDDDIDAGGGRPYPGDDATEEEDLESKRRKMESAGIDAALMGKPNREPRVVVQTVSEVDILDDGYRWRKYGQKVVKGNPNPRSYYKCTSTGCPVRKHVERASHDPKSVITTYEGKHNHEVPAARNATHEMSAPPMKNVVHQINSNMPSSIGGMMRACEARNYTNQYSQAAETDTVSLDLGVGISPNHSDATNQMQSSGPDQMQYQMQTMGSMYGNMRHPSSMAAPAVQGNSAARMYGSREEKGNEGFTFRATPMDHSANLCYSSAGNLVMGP

B1: iso1 W box oligonucleotide (dsDNA)
DNA 1: TCGCTAACCAGTGACTTCCACGTTTCATCATTTATT
DNA 2: AATAAATGATGAAACGTGGAAGTCACTGGTTAGCGA
**Q.** Does B1 bind [1]?
**A.** Result: binds

B2: iso1 SP8a oligonucleotide (dsDNA)
DNA 1: CCCTCGTGGAAGCAAAACTGTGTTTCTCGC
DNA 2: GCGAGAAACACAGTTTTGCTTCCACGAGGG
**Q.** Does B2 bind [2]?
**A.** Result: no binding

B3: iso1 SURE (SURE-b) oligonucleotide (dsDNA)
DNA 1: GGAAAACCGAAATACCAAAAAATAATAATAAAATAATAAT
DNA 2: ATTATTATTTTATTATTATTTTTTGGTATTTCGGTTTTCC
**Q.** Does B3 bind [3]?
**A.** Result: binds
